In PMC4315244 one finds stoichiometry N data, which are given here for two substances.

Assay [1] addresses Nup82-Flag-TEV-ProtA (S. cerevisiae) (UniProt P40368). Briefly: AUC + SEC.
The target in assay [2] is Nup82 (of the Nup82–Nup159tail–Flag-Nsp1C complex) (S. cerevisiae) (UniProt P40368). Briefly: SEC-MALS.
Sequence of Nup82 (of the Nup82–Nup159tail–Flag-Nsp1C complex) (S. cerevisiae) (P40368 whole entry, one chain of several): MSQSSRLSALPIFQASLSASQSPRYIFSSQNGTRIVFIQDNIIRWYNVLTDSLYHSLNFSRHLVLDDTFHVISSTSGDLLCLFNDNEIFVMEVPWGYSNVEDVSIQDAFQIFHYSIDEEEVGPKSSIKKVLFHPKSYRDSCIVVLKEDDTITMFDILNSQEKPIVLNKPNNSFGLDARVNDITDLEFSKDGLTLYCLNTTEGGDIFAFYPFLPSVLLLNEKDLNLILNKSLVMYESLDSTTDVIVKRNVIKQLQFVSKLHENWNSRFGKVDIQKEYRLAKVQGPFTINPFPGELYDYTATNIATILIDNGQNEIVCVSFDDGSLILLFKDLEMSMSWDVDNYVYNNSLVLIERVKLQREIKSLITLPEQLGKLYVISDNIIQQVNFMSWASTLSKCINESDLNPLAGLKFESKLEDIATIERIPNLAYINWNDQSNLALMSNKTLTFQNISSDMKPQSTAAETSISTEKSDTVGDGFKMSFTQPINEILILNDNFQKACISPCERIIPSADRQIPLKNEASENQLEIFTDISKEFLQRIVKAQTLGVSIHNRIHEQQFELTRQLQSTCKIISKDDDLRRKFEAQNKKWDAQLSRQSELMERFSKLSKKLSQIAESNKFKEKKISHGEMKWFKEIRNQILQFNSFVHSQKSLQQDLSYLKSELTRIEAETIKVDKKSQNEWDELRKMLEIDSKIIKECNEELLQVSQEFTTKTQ

Sequence of Nup82-Flag-TEV-ProtA (P40368 whole entry): as the sequence (P40368 whole entry, one chain of several) above
Sequence of Nup159 tail (domain or fragment) (P40477 whole entry, the tested form may be a part): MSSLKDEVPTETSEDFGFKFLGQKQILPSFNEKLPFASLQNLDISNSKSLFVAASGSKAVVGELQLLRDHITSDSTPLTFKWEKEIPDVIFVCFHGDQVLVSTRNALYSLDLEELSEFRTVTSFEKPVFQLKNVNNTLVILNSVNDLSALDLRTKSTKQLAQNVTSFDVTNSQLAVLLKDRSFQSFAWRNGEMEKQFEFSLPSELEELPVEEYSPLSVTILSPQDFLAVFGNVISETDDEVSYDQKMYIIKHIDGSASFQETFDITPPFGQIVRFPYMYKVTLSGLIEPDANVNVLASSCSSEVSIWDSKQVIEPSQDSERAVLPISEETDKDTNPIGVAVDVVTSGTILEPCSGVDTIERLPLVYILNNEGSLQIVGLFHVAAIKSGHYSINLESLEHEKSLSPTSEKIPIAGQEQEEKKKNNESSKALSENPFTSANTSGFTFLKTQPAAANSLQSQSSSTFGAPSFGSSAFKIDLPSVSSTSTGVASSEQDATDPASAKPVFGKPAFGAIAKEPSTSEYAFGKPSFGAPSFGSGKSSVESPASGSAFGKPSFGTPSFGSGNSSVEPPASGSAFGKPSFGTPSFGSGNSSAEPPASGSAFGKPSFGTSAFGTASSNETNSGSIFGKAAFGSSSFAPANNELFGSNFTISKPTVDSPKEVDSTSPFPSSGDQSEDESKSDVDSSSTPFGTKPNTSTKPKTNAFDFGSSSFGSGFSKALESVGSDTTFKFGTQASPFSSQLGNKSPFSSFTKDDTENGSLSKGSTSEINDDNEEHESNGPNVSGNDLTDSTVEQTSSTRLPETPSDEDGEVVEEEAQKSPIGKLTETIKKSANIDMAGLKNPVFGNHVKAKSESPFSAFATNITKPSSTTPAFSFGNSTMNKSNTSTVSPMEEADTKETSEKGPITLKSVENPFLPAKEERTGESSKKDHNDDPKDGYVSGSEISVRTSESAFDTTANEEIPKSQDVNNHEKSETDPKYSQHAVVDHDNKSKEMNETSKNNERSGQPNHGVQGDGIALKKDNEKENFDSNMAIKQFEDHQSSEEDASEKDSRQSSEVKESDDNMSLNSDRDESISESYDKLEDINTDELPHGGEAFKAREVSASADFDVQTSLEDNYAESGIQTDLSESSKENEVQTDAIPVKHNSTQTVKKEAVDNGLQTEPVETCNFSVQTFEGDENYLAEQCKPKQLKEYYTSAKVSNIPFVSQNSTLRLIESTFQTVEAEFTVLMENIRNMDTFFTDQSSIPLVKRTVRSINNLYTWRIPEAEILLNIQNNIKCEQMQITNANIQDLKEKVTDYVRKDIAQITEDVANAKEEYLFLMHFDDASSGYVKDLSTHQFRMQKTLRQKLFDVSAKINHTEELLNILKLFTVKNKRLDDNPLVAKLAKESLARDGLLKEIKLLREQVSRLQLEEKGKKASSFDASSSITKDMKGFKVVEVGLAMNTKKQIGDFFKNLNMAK

Take “Nup82-Flag-TEV-ProtA (from UniProt P40368 1-713) (natural protein; other documents disagree on this pair)”: in assay [1], the stoichiometry N – broadly, a count of units in the complex or per binding partner – was 2. In the case of Nup159 tail (domain or fragment), in assay [2], the stoichiometry N worked out at 1.
